# Measurements taken from publication PMC10561363.
# Biological target: glutathione S-transferase (GST) fused to the C-terminus of SERT
# Assay: GST pull-down, immunoblot densitometry
# Details: whole-cell lysates of transfected HEK-293 cells; n = 3; parent: est. 3.1; read off a plot
substance,measurement,value
"YFP-tagged human MAD2, wild type (from UniProt Q13257) R133A",response,2.1 a.u.
